# According to paper PMC2653023, “Improving the functional expression of a Bacillus licheniformis laccase by random and site-directed mutagenesis” (BMC Biotechnology, 2009):
# Substrate: CCn1c(=NN=c2sc3cc(S(=O)(=O)O)ccc3n2CC)sc2cc(S(=O)(=O)O)ccc21
# Test: purified protein
# Assay type: biochemical, Bacillus licheniformis
# Details: 0.1 M citrate/phosphate buffer, pH 4.0, room temperature, 5-500 μM ABTS, co-substrate O2, free enzyme
row,Protein,Km [µM]
1,"CotA (Bacillus licheniformis DSM 13 = ATCC 14580) (protein, untagged full-length CotA in pET22b+ (NdeI/EcoRI, own stop codon), recombinant from E. coli BL21(DE3), heat step and Q-Sepharose, ~65 kDa; primer-encoded N-terminus MKLEKFVDR, C-terminus EVTDVRHQ) MKLEKFVDRLPIPQVLQPQSKSKEMTYYEVTMKEFQQQLHRDLPPTRLFGYNGVYPGPTFEVQKHEKVAVKWLNKLPDRHFLPVDHTLHDDGHHEHEVKTVVHLHGGCTPADSDGYPEAWYTKDFHAKGPFFEREVYEYPNEQDATALWYHDHAMAITRLNVYAGLVGLYFIRDREERSLNLPKGEYEIPLLIQDKSFHEDGSLFYPRQPDNPSPDLPDPSIVPAFCGDTILVNGKVWPFAELEPRKYRFRILNASNTRIFELYFDHDITCHQIGTDGGLLQHPVKVNELVIAPAERCDIIVDFSRAEGKTVTLKKRIGCGGQDADPDTDADIMQFRISKPLKQKDTSSLPRILRKRPFYRRHKINALRNLSLGAAVDQYGRPVLLLNNTKWHEPVTETPALGSTEIWSIINAGRAIHPIHLHLVQFMILDHRPFDIERYQENGELVFTGPAVPPAPNEKGLKDTVKVPPGSVTRIIATFAPYSGRYVWHCHILEHEDYDMMRPLEVTDVRHQ",6.5 ± 0.2
2,"CotA (Bacillus licheniformis DSM 13 = ATCC 14580; D500G) (protein, untagged full-length CotA in pET22b+ (NdeI/EcoRI, own stop codon), recombinant from E. coli BL21(DE3), heat step and Q-Sepharose, ~65 kDa; primer-encoded N-terminus MKLEKFVDR, C-terminus EVTDVRHQ) MKLEKFVDRLPIPQVLQPQSKSKEMTYYEVTMKEFQQQLHRDLPPTRLFGYNGVYPGPTFEVQKHEKVAVKWLNKLPDRHFLPVDHTLHDDGHHEHEVKTVVHLHGGCTPADSDGYPEAWYTKDFHAKGPFFEREVYEYPNEQDATALWYHDHAMAITRLNVYAGLVGLYFIRDREERSLNLPKGEYEIPLLIQDKSFHEDGSLFYPRQPDNPSPDLPDPSIVPAFCGDTILVNGKVWPFAELEPRKYRFRILNASNTRIFELYFDHDITCHQIGTDGGLLQHPVKVNELVIAPAERCDIIVDFSRAEGKTVTLKKRIGCGGQDADPDTDADIMQFRISKPLKQKDTSSLPRILRKRPFYRRHKINALRNLSLGAAVDQYGRPVLLLNNTKWHEPVTETPALGSTEIWSIINAGRAIHPIHLHLVQFMILDHRPFDIERYQENGELVFTGPAVPPAPNEKGLKDTVKVPPGSVTRIIATFAPYSGRYVWHCHILEHEDYGMMRPLEVTDVRHQ",9.5 ± 0.2
3,"CotA (Bacillus licheniformis DSM 13 = ATCC 14580; D500G/K316N) (protein, untagged full-length CotA in pET22b+ (NdeI/EcoRI, own stop codon), recombinant from E. coli BL21(DE3), heat step and Q-Sepharose, ~65 kDa; primer-encoded N-terminus MKLEKFVDR, C-terminus EVTDVRHQ) MKLEKFVDRLPIPQVLQPQSKSKEMTYYEVTMKEFQQQLHRDLPPTRLFGYNGVYPGPTFEVQKHEKVAVKWLNKLPDRHFLPVDHTLHDDGHHEHEVKTVVHLHGGCTPADSDGYPEAWYTKDFHAKGPFFEREVYEYPNEQDATALWYHDHAMAITRLNVYAGLVGLYFIRDREERSLNLPKGEYEIPLLIQDKSFHEDGSLFYPRQPDNPSPDLPDPSIVPAFCGDTILVNGKVWPFAELEPRKYRFRILNASNTRIFELYFDHDITCHQIGTDGGLLQHPVKVNELVIAPAERCDIIVDFSRAEGKTVTLKNRIGCGGQDADPDTDADIMQFRISKPLKQKDTSSLPRILRKRPFYRRHKINALRNLSLGAAVDQYGRPVLLLNNTKWHEPVTETPALGSTEIWSIINAGRAIHPIHLHLVQFMILDHRPFDIERYQENGELVFTGPAVPPAPNEKGLKDTVKVPPGSVTRIIATFAPYSGRYVWHCHILEHEDYGMMRPLEVTDVRHQ",8.4 ± 0.2
4,"CotA (Bacillus licheniformis DSM 13 = ATCC 14580; K316N) (protein, untagged full-length CotA in pET22b+ (NdeI/EcoRI, own stop codon), recombinant from E. coli BL21(DE3), heat step and Q-Sepharose, ~65 kDa; primer-encoded N-terminus MKLEKFVDR, C-terminus EVTDVRHQ) MKLEKFVDRLPIPQVLQPQSKSKEMTYYEVTMKEFQQQLHRDLPPTRLFGYNGVYPGPTFEVQKHEKVAVKWLNKLPDRHFLPVDHTLHDDGHHEHEVKTVVHLHGGCTPADSDGYPEAWYTKDFHAKGPFFEREVYEYPNEQDATALWYHDHAMAITRLNVYAGLVGLYFIRDREERSLNLPKGEYEIPLLIQDKSFHEDGSLFYPRQPDNPSPDLPDPSIVPAFCGDTILVNGKVWPFAELEPRKYRFRILNASNTRIFELYFDHDITCHQIGTDGGLLQHPVKVNELVIAPAERCDIIVDFSRAEGKTVTLKNRIGCGGQDADPDTDADIMQFRISKPLKQKDTSSLPRILRKRPFYRRHKINALRNLSLGAAVDQYGRPVLLLNNTKWHEPVTETPALGSTEIWSIINAGRAIHPIHLHLVQFMILDHRPFDIERYQENGELVFTGPAVPPAPNEKGLKDTVKVPPGSVTRIIATFAPYSGRYVWHCHILEHEDYDMMRPLEVTDVRHQ",10.0 ± 0.3
